Data reported in patent US11858974 (RESQ BIOTECH, dated 2024).

B1: SOD1C5-4 (cyclo-TWSVW) (peptide)
peptide: TWSVW
modifications: head-to-tail cyclic peptide (cyclo-TWSVW), no free termini
notes: Made by solid-phase synthesis (CPC Scientific); Backbone-cyclised pentapeptide; also called SODC5-4; selected cyclic pentapeptide SOD1C5-4
B2: AβC5-34 (cyclo-SASPT) (peptide)
peptide: SASPT
modifications: head-to-tail cyclic peptide (cyclo-SASPT), no free termini
notes: Made by solid-phase synthesis (Genscript); also called Aβ-targeting cyclic 5-peptide number 34
B3: AβC5-116 (cyclo-TAFDR) (peptide)
peptide: TAFDR
modifications: head-to-tail cyclic peptide (cyclo-TAFDR), no free termini
notes: Made by solid-phase synthesis (Genscript)

Target: T1, SOD1(A4V), Ala4Val variant of human Cu/Zn superoxide dismutase 1 (human, UniProt P00441 2-154, A4V)
T1 construct: Isolated from E. coli Origami 2(DE3) (pETSOD1(A4V) or pASK-SOD1 vectors); also called isolated SOD1(A4V); mutant SOD1
T1 sequence (P00441 2-154 A5V): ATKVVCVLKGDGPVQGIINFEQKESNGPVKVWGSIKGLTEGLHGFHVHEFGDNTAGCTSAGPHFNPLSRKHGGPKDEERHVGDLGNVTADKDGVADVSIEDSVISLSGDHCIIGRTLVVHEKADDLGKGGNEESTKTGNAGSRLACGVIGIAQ
Assay: CD spectroscopy of isolated SOD1(A4V) incubated with synthetic cyclic peptide
Description: Appropriate amounts of synthetic cyclic peptides were added to either 40 µM SOD1(A4V) or 50 µM Aβ solutions at the desired cyclic peptide:target protein molar ratio. SOD1(A4V) structural changes were monitored for 90 d at 25° C., under quiescent conditions. Aβ structural changes were monitored for 30 d at 33° C. under quiescent conditions. CD spectra in the range 190-260 nm were recorded on a JASCO J-715 spectropolarimeter (Jasco Co., Japan) using quartz cuvettes with 1 mm path length. Each reported spectrum is the average of three scans at a rate of 100 nm·min^-1 and a resolution of 0.5 nm.

**Q.** Does B1 bind?
**A.** binds

**Q.** Does B2 bind?
**A.** no binding

**Q.** Does B3 bind?
**A.** no binding
